Measurements published in PMC10531346, “Structural Similarities and Overlapping Activities among Dihydroflavonol 4-Reductase, Flavanone 4-Reductase, and Anthocyanidin Reductase Offer Metabolic Flexibility in the Flavonoid Pathway” (International Journal of Molecular Sciences, 2023).
Where two headings read alike, the source gives them in different places.

Columns and labels:
[1] = molecular target: T1, SbFNR1 (Sorghum bicolor, UniProt C5YGL7); assay: SbFNR1 activity assay (dihydroflavonols, flavanones, anthocyanidins); format: biochemical; details: anthocyanidin reduction
[2] = molecular target: SbDFR3 (Sorghum bicolor, UniProt C5XVF8); assay: SbDFR3 activity against anthocyanidins (ANR activity); format: biochemical; details: anthocyanidin reduction
Experimental: (§1) To measure any overlapping specificity among FNR, DFR, and ANR for anthocyanidins, their activity against cyanidin, pelargonidin, and delphinidin were assayed.
(§2) LC-MS was used to analyze the various flavonoids using a Waters Xevo TQ-MS mass spectrometer interfaced with a Waters Acquity UPLC. […] The chromatographic conditions used were based on. The mobile phase used was a binary gradient of water with 0.1% (v/v) formic acid (Solvent A) and methanol with 0.1% formic acid (Solvent B). The solvent flow rate was 0.2 mL min^-1. and the initial solvent composition was 20% B/80% A and was constant for the first minute following sample injection. Gradient elution was accomplished by increasing the ratio of solvent B to solvent A from 20:80 to 65:35 over 10 min. using a linear gradient, and then increased to 100:0 over the next 4 min. The composition was maintained at 100% B for 5 min., returned to 80%A/20%B over the next 3 min., and held at that ratio for the next 3 min. […]
(§3) Appropriate daughter ions to be used for multiple reaction monitoring (MRM) of (-)-epicatechin were identified by infusing standard and recording spectra. The optimum cone voltage and collision energy of epicatechin were also determined in these infusion experiments. […]

[3] = molecular target: T2, PvDFRa (Panicum virgatum, UniProt A0A8T0SQV2); assay: PvDFRa activity against anthocyanidins (ANR activity); format: biochemical; details: anthocyanidin reduction
Experimental: as §1, §2, §3

[4] = system: SbFNR2; assay: SbFNR2 activity assay (dihydroflavonols, flavanones, anthocyanidins); format: biochemical, Sorghum bicolor; details: anthocyanidin reduction
[5] = molecular target: T2, PvDFRa; format: biochemical
Experimental: The referenced Vmax and Km values were used to make a nonlinear regression. […] Five µL of the reaction was injected into a reversed-phase HPLC column XBridge Peptide BEH C18 (Waters, Milford, MA, USA). Acetonitrile:water was used as the mobile phase, using a gradient in the concentration of acetonitrile from 5% (v/v) to 100%.

[6] = molecular target: PvDFRa WT (Panicum virgatum, UniProt A0A8T0SQV2); assay: Enzyme kinetic assay, wild-type PvDFRa; format: biochemical; details: NADH utilized instead of NADPH
Experimental: Kinetic Assays of PvDFRa, SbDFR3, mutant PvDFRa, and SbFNRs: DFR was purified to the same purity as used in crystallization. Enzymatic assay followed the methodology previously reported with small changes. A solution of 0.1 M potassium phosphate at pH 7.0 was utilized, and substrate concentration was varied from 5 µM to 800 µM. The reaction was initiated with 0.05 mg enzyme in a total reaction volume of 200 µL. […] The reaction proceeded for 15 min. at 25 °C and was terminated by the addition of 600 µL 95:5 (v/v) n-butanol:HCl. […] The reactions were centrifuged for 15 min. at 14,000× g and the supernatant was used to determine product concentrations with a GENESYS™ 10S UV-Vis Spectrophotometer (Thermo Scientific, Waltham, MA, USA). The absorbances of cyanidin delphinidin and pelargonidin were measured at 550, 550, and 528 nm, respectively. The concentrations were determined based on calibrations with reference compounds (Figure S12). […] Data analysis was conducted utilizing GraphPad Prism 8.0.2 using linear regression to model the appropriate model. Error in each data point is shown utilizing the standard deviation.

[7] = molecular target: T1, SbFNR1; assay: Isothermal titration calorimetry, SbFNR1; format: binding; details: ITC
[8] = molecular target: T2, PvDFRa; assay: Isothermal titration calorimetry, PvDFRa; format: binding; details: ITC
Experimental: In order to obtain thermodynamic parameters for the association, isothermal titration calorimetry (ITC) for PvDFRa was performed (Figure S8, Table 2).
Isothermal Titration Calorimetry: Purified PvDFR was dialyzed to a buffer containing 50 mM Bis-Tris, 50 mM Tricine (pH 6.5), 200 mM NaCl and 2.5% (v/v) glycerol. Substrates were dissolved in the same buffer used for enzyme dialysis. Analysis was conducted utilizing a Microcal ITC 200 (Malvern). […] A total of 22 injections were made, each with a volume of 2 uL. Data analysis was conducted utilizing Origin Software 7 and modeled to the appropriate nonlinear regression.

[9] = system: O=C1c2c(O)cc(O)cc2O[C@H](c2ccc(O)cc2)[C@H]1O; assay: purified protein, by the assay type; details: other: NADPH 2 mM
[10] = system: O=C1c2c(O)cc(O)cc2O[C@H](c2cc(O)c(O)c(O)c2)[C@H]1O; assay: purified protein, by the assay type; details: other: NADPH 2 mM
[11] = system: O=C1c2c(O)cc(O)cc2OC(c2ccc(O)c(O)c2)[C@H]1O; assay: purified protein, by the assay type; details: other: NADPH 2 mM
[12] = system: O=C1C[C@@H](c2ccc(O)cc2)Oc2cc(O)cc(O)c21; assay: purified protein, by the assay type; details: other: NADPH 2 mM

`Oc1ccc(-c2[o+]c3cc(O)cc(O)c3cc2O)cc1` [pelargonidin] was tested, and the “efficiency relative to the activity of SbANR” value [1] was 2.1%, the “activity as % of the activity of SbANR” value [2] was 2.3% and the “activity as % of the activity of SbANR” value [3] was 13.8%. The “efficiency relative to the activity of SbANR” value [4] was 42.7%.

`O=c1c(O)c(-c2ccc(O)c(O)c2)oc2cc(O)cc(O)c12` [quercetin] was tested, and the “substrate of PvDFRa or not” value ([5]; 500 µM quercetin, 2 mM NADPH, 30 min, HPLC) was “not a substrate”, the “type of inhibition of PvDFRa” value ([5]; DHM as substrate) was “noncompetitive inhibition” and the Vmax ([5]; DHM as substrate, 75 μM quercetin) was 4.193 min⁻¹. It also gave a Vmax ([5]; DHM as substrate, 150 μM quercetin) of 3.545 min⁻¹.

In the case of NADH, the “enzyme efficiency with NADH relative to NADPH” value [6] is reported as 60.55%.

With NADP^+ the “∆H” value [7] was -1.12 ± 0.72 kcal/mol, the “∆S” value [7] was −15.4 Cal mol^−1 K^−1 and the “NADP^+-binding affinity relative to affinity for DHQ” value [8] was “roughly 100 times”. The “∆H” value ([8]; 298 K) was -9.41 ± 0.15 kcal/mol and the “∆S” value ([8]; 298 K) was −0.226 Cal mol^−1 K^−1.

PvDFRa Q242A (Panicum virgatum; Q242A) gave a Km ([9]; pH 7.0) of 74.59 ± 62.70 µM, a kcat ([9]; pH 7.0) of 0.00783 s⁻¹ and a kcat/Km ([9]; pH 7.0) of 105 M⁻¹ s⁻¹. The Km ([10]; pH 7.0) was 119.2 ± 87.86 µM, the kcat ([10]; pH 7.0) was 0.0379 s⁻¹ and the kcat/Km ([10]; pH 7.0) was 318 M⁻¹ s⁻¹. For the same compound, the Km ([11]; pH 7.0) was 156.8 ± 121.41 µM, the kcat ([11]; pH 7.0) was 0.0428 s⁻¹ and the kcat/Km ([11]; pH 7.0) was 273 M⁻¹ s⁻¹.

For PvDFRa T143S (Panicum virgatum; T143S), the Km ([9]; pH 7.0) was 137.7 ± 36.00 µM, the kcat ([9]; pH 7.0) was 0.00956 s⁻¹ and the kcat/Km ([9]; pH 7.0) was 69.3 M⁻¹ s⁻¹. It also gave a Km ([10]; pH 7.0) of 7.409 ± 0.2465 µM, a kcat ([10]; pH 7.0) of 0.0176 s⁻¹ and a kcat/Km ([10]; pH 7.0) of 2380 M⁻¹ s⁻¹. For the same compound, the Km ([11]; pH 7.0) was 19.04 ± 11.21 µM, the kcat ([11]; pH 7.0) was 0.0293 s⁻¹ and the kcat/Km ([11]; pH 7.0) was 1540 M⁻¹ s⁻¹.

Work on PvDFRa WT (Panicum virgatum) yielded a Km ([12]; pH 7.0, 25 °C, 25.0 °C) of 407.6 ± 223.6 µM, a kcat ([12]; pH 7.0, 25 °C, 25.0 °C) of 0.0592 s⁻¹ and a kcat/Km ([12]; pH 7.0, 25 °C, 25.0 °C) of 145 M⁻¹ s⁻¹. For the same compound, the kcat ([9]; pH 7.0, 25 °C, 25.0 °C) was 0.0121 s⁻¹, the kcat/Km ([9]; pH 7.0, 25 °C, 25.0 °C) was 63.2 M⁻¹ s⁻¹ and the Km ([10]; pH 7.0, 25 °C, 25.0 °C) was 150.0 ± 56.9 µM. For the same compound, the kcat ([10]; pH 7.0, 25 °C, 25.0 °C) was 0.0377 s⁻¹, the kcat/Km ([10]; pH 7.0, 25 °C, 25.0 °C) was 251 M⁻¹ s⁻¹ and the Km ([11]; pH 7.0, 25 °C, 25.0 °C) was 128.6 ± 14.3 µM. For the same compound, the kcat ([11]; pH 7.0, 25 °C, 25.0 °C) was 0.0559 s⁻¹ and the kcat/Km ([11]; pH 7.0, 25 °C, 25.0 °C) was 435 M⁻¹ s⁻¹.

Work on SbDFR3 (Sorghum bicolor) yielded a Km ([12]; pH 7.0) of 118.2 ± 14.92 µM, a kcat ([12]; pH 7.0) of 0.0347 ± 0.00145 s⁻¹ and a kcat/Km ([12]; pH 7.0) of 294 M⁻¹ s⁻¹. It also gave a Km ([10]; pH 7.0) of 118.5 ± 0.2885 µM, a kcat ([10]; pH 7.0) of 0.0773 s⁻¹ and a kcat/Km ([10]; pH 7.0) of 653 M⁻¹ s⁻¹. The Km ([11]; pH 7.0) was 166.4 ± 28.8 µM, the kcat ([11]; pH 7.0) was 0.0633 s⁻¹ and the kcat/Km ([11]; pH 7.0) was 380 M⁻¹ s⁻¹.
